± gives the half width of the 95% confidence interval.
What was measured:
[1] = folding stability dG unfold (combined trypsin and chymotrypsin); higher = more stable
Outline: (§1)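 Unfolding free energy was derived, per protease or combined, by relating Bayesian-fitted K50 values from sequencing counts to a sequence-predicted unfolded-state K50 and a shared folded-state K50. The underlying digests exposed cysteine-free mini-proteins under 80 residues, in a PA-tagged cDNA display construct, to trypsin and chymotrypsin at 11 threefold-diluted concentrations and to a no-protease condition. A filter kept only designs with AlphaFold2 dimer inter-PAE above 15.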

[2] = folding stability dG unfold from chymotrypsin proteolysis; higher = more stable
Outline: as §1

[3] = folding stability dG unfold from trypsin proteolysis; higher = more stable
Outline: as §1

Sequence	folding stability dG unfold [1]	folding stability dG unfold [2]	folding stability dG unfold [3]
SAGGSAGGSAGENKPIKVLVFLEKEDEYYEELFEFDSPEEIEEWLKKIPKDYKVKKVIVFSAGGSAGGSAGG [r17_410_TrMRF]	3.61 ± 0.16 kcal/mol	3.95 ± 0.14 kcal/mol	3.09 ± 0.11 kcal/mol
SAGGSAGGSMIFFPNITKEEFEEIFRKKGYKVKRYPSTNVIEVTGKDGKPIKAVVIPVSPEEFSAGGSAGGS [r12_211_TrMRF]	0.668 ± 0.088 kcal/mol	0.618 ± 0.13 kcal/mol	0.677 ± 0.058 kcal/mol
SAGGSAGGMILLETEEGEPKAVILFELRDPLFGGEIPLEFLEELAEEIKEKFPEIKHIELIGLPSAGGSAGG [r6_793_TrMRF]	1.31 ± 0.08 kcal/mol	1.1 ± 0.03 kcal/mol	1.47 ± 0.047 kcal/mol
SAGGSAGGSKITSIEEKDGFVRITIEVDGKTETKTIPKENLPPNITFPPGAKVKIEKVSKEDLSAGGSAGGS [r12_1005_TrROS_Hall]	1.32 ± 0.073 kcal/mol	1.74 ± 0.043 kcal/mol	0.449 ± 0.04 kcal/mol
SAGGSAGGSAGGMTQEVTLEPLPDGTVKLLSVEAPESTVTVPVKLPGGGEEVRTLPPEALSAGGSAGGSAGG [r7_829_JUSTAS]	-0.131 ± 0.16 kcal/mol	-0.255 ± 0.15 kcal/mol	-0.0201 ± 0.045 kcal/mol
SAGGSGPPVLVRLEVEVLGEPYTLTLPVPASLIHPSQRVRFRVRVVSVDPVNNRVTVRIESVELYPSAGGSA [r2_479_TrMRF]	2.98 ± 0.036 kcal/mol	3.018 ± 0.021 kcal/mol	2.75 ± 0.065 kcal/mol
SAGGSAGGSAGMTIEELKAKGYKVEVVKLPDSPEEVVVVTYPVPPGGIEKSVIPLSEVKLSAGGSAGGSAGG [r17_311_JUSTAS]	0.375 ± 0.052 kcal/mol	0.601 ± 0.048 kcal/mol	-0.00127 ± 0.025 kcal/mol
SAGGSAGGSAGKIEAFPGKNTVLLKISIPRRDPNSDSIYTLHAVIPATPEQAKKFLELGISAGGSAGGSAGG [r11_389_TrMRF]	0.97 ± 0.1 kcal/mol	0.899 ± 0.14 kcal/mol	0.89 ± 0.041 kcal/mol
SAGGSIETIAERARDLARELNPDDGKEYPITIEIRDPENNRPIRIKISVRYDPDGKIKKVKFTKFEPYSAGG [r13_770_TrROS]	1.06 ± 0.077 kcal/mol	1.04 ± 0.11 kcal/mol	1.03 ± 0.06 kcal/mol
SAGGSAGGSDVSEEELRAIAEEIAAELGLSDITVEVEKLPTAVVRITITNPATGETIEIEVPESAGGSAGGS [r12_1000_JUSTAS]	1.79 ± 0.047 kcal/mol	1.77 ± 0.061 kcal/mol	1.75 ± 0.038 kcal/mol
SASPPRRFMIKVTYPDGKTTLSYGDDPEQTRAALEAQIAEEHPGNYTIEYTELSPDEWASPEKAEALLSSAG [r14_900_JUSTAS]	2.01 ± 0.078 kcal/mol	1.71 ± 0.073 kcal/mol	2.27 ± 0.034 kcal/mol
SAGGMTITFTLEFDLEDDRRITVTATIDPTGDDVLITVRVELTLPNGEKLEFTATIVLPPGAHPDELISAGG [r13_3_TrMRF]	5.53 ± 0.85 kcal/mol	5.25 ± 0.24 kcal/mol	4.15 ± 0.38 kcal/mol
SAGGVITIRIPGIDNRNPETMRSKAVEIADRLRDHGVTVTDVEWDPDQGSMTITVMLPGQSLEDILKSAGGS [r8_344_TrROS]	2.42 ± 0.084 kcal/mol	2.69 ± 0.051 kcal/mol	1.89 ± 0.062 kcal/mol
SAGGKMKLEVEILENEGTILVRFHFGDKVLEIPLPFPNLTPEDVKEAAEEIAKKLKEEYNIEEVEIESAGGS [r16_249_TrMRF]	2.64 ± 0.28 kcal/mol	3.18 ± 0.23 kcal/mol	2.33 ± 0.13 kcal/mol
SAGSSLRLELDLEVTLYAPVVSVRPDGSLSLVPGSTRPIPVRLRVTFELTLDPDNPLNVSINVDIEADFSAG [r14_274_TrMRF]	> 6 kcal/mol	5.9 ± 0.081 kcal/mol	4.1 ± 0.076 kcal/mol
SKIEIDEFPWERNPDDGYATIQIKIKVRDPDKKKKDIPHEFPPGSSPDQFWDQIENRAQNNGIKDVEISWSA [r9_1203_TrROS]	0.032 ± 0.13 kcal/mol	-0.0831 ± 0.11 kcal/mol	0.0973 ± 0.058 kcal/mol
SMKTLIVEGMTPEEIRALAEEAAKKGEEVEIEIVVKDNEEIKEALEEAGVEVEEVEDPETKEKVLKVTVKSA [r9_759_TrROS_Hall]	0.327 ± 0.14 kcal/mol	0.412 ± 0.072 kcal/mol	0.254 ± 0.044 kcal/mol
SAGGSAGGSASVTVVPSPGPTTTVVTFSPDDTVTVTTHTVDPSAATSTPTTTTVSLSDPAAASAGGSAGGSA [r18_503_JUSTAS]	1.73 ± 0.03 kcal/mol	1.44 ± 0.015 kcal/mol	2.08 ± 0.044 kcal/mol
SAGGGMESRTLTLPKEEIEKVKEEIKKASNLDIKVTTKKLPNGEYELTITFSNPEDVEKFEKKLGIESAGGS [r16_172_JUSTAS]	2.71 ± 0.15 kcal/mol	3.05 ± 0.059 kcal/mol	1.99 ± 0.16 kcal/mol
SAGMPSFTTTSAPTEQLPELLAELATRPPNVSYTFPLPDPSRSLSLSVSADRITLTDPATGTTTTLPASAGG [r19_154_JUSTAS]	-0.779 ± 0.2 kcal/mol	-1.12 ± 0.51 kcal/mol	-0.653 ± 0.17 kcal/mol
SAGGKVKIIVFNKKTGEKIEIDLSKLKPGDIIKLPNGYYKIIDKKTKKIKVIKAKSIEELKKAIKKLSSAGG [r13_962_TrROS_Hall]	2.01 ± 0.33 kcal/mol	2.21 ± 0.17 kcal/mol	2.07 ± 0.15 kcal/mol
